Biological target: N-His-ZB-CSB-Avi-Biotin (WT), full length (human, UniProt Q03468 1-1493, biotin on the C-terminal Avi tag)
Assay: SPR

Chain of N-His-ZB-CSB-Avi-Biotin (WT), full length (Q03468 whole entry): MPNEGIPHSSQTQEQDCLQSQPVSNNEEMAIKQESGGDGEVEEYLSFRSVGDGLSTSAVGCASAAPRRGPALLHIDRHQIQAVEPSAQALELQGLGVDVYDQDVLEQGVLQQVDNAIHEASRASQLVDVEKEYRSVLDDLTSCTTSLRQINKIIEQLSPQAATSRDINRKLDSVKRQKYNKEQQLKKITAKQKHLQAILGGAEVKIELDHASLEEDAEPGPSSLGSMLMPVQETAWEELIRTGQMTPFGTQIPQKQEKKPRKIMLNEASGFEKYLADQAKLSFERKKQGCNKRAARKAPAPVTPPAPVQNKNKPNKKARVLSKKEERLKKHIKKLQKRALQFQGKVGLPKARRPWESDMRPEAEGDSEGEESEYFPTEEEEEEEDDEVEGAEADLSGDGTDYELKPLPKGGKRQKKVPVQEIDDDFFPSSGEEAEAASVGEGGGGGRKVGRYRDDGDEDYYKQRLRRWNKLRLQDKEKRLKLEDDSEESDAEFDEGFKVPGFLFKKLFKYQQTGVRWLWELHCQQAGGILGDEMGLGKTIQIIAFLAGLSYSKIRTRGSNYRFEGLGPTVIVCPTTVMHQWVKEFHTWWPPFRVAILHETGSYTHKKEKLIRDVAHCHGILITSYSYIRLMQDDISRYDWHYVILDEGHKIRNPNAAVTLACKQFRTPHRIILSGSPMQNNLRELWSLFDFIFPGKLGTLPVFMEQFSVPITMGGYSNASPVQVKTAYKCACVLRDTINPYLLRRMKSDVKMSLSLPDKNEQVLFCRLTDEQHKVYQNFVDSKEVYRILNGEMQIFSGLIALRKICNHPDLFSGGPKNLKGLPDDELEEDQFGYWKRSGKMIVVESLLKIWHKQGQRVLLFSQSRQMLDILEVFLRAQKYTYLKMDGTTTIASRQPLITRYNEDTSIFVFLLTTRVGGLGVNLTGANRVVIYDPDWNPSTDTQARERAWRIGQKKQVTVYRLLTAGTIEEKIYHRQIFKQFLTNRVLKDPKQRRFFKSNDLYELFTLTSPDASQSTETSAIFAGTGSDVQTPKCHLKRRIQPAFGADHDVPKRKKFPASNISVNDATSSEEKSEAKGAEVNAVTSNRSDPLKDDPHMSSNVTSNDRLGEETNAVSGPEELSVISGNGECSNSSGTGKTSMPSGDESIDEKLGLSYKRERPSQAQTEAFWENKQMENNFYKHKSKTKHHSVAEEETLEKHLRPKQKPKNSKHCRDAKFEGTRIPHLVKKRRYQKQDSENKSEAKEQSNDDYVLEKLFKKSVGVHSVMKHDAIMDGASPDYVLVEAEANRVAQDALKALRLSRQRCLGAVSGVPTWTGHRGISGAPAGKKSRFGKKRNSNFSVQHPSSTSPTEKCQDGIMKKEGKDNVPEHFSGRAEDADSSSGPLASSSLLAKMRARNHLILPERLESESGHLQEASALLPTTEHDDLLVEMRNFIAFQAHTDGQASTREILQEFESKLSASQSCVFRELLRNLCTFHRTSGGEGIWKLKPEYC

Kd: 140 nM
B1: SNM1A (WT, a.a. 698-1040, untagged) (domain or fragment)
chain: KKTCPFYKKIPGTGFTVDAFQYGVVEGCTAYFLTHFHSDHYAGLSKHFTFPVYCSEITGNLLKNKLHVQEQYIHPLPLDTECIVNGVKVVLLDANHCPGAVMILFYLPNGTVILHTGDFRADPSMERSLLADQKVHMLYLDTTYCSPEYTFPSQQEVIRFAINTAFEAVTLNPHALVVCGTYSIGKEKVFLAIADVLGSKVGMSQEKYKTLQCLNIPEINSLITTDMCSSLVHLLPMMQINFKGLQSHLKKCGGKYNQILAFRPTGWTHSNKFTRIADVIPQTKGNISIYGIPYSEHSSYLEMKRFVQWLKPQKIIPTVNVGTWKSRSTMEKYFREWKLEAGY

Reference: paper PMC12668182 (2025)
